Test results as given in PMC2714705 (Structure (London, England : 1993), 2009).
Several values for one entry are separate records, joined by “and”; a condition that tells them apart may be missing. Identical values can stand only once.

B1: P22 assembly-naïve portal, full length His-tagged gp1, P26744 1-725 (natural protein)
chain: MADNENRLESILSRFDADWTASDEARREAKNDLFFSRVSQWDDWLSQYTTLQYRGQFDVVRPVVRKLVSEMRQNPIDVLYRPKDGARPDAADVLMGMYRTDMRHNTAKIAVNIAVREQIEAGVGAWRLVTDYEDQSPTSNNQVIRREPIHSACSHVIWDSNSKLMDKSDARHCTVIHSMSQNGWEDFAEKYDLDADDIPSFQNPNDWVFPWLTQDTIQIAEFYEVVEKKETAFIYQDPVTGEPVSYFKRDIKDVIDDLADSGFIKIAERQIKRRRVYKSIITCTAVLKDKQLIAGEHIPIVPVFGEWGFVEDKEVYEGVVRLTKDGQRLRNMIMSFNADIVARTPKKKPFFWPEQIAGFEHMYDGNDDYPYYLLNRTDENSGDLPTQPLAYYENPEVPQANAYMLEAATSAVKEVATLGVDTEAVNGGQVAFDTVNQLNMRADLETYVFQDNLATAMRRDGEIYQSIVNDIYDVPRNVTITLEDGSEKDVQLMAEVVDLATGEKQVLNDIRGRYECYTDVGPSFQSMKQQNRAEILELLGKTPQGTPEYQLLLLQYFTLLDGKGVEMMRDYANKQLIQMGVKKPETPEEQQWLVEAQQAKQGQQDPAMVQAQGVLLQGQAELAKAQNQTLSLQIDAAKVEAQNQLNAARIAEIFNNMDLSKQSEFREFLKTVASFQQDRSEDARANAELLLKGDEQTHKQRMDIANILQSQRQNQPSGSVAETPQ
B2: P22 gp26 tail needle (natural protein, bacteriophage P22)
chain: MADPSLNNPVVIQATRLDASILPRNVFSKSYLLYVIAQGTDVGAIAGKANEAGQGAYDAQVKNDEQDVELADHEARIKQLRIDVDDHESRITANTKAITALNVRVTTAEGEIASLQTNVSALDGRVTTAENNISALQADYVSKTATTSQSLASPLNVTTSYSVGGKKVLGARQTGWTAATGTANKGVFDADLTFAVSDTYTQSEIQAIANALITERRRTKALEDALRAHGLID
B3: P22 gp4 (natural protein, bacteriophage P22, UniProt P26746 1-166, looked up)
chain: MQIKTKGDLVRAALRKLGVASDATLTDVEPQSMQDAVDDLEAMMAEWYQDGKGIITGYVFSDDENPPAEGDDHGLRSSAVSAVFHNLACRIAPDYALEATAKIIATAKYGKELLYKQTAISRAKRAPYPSRMPTGSGNSFANLNEWHYFPGEQNADSTTPHDEGNG

What was measured:
Assay in all cases: cryo-EM structure
[1] = biological target: T1, P22 assembly-naïve portal, full length His-tagged gp1 (bacteriophage P22), P26744; conditions: remark: other sources report otherwise
T1 chain: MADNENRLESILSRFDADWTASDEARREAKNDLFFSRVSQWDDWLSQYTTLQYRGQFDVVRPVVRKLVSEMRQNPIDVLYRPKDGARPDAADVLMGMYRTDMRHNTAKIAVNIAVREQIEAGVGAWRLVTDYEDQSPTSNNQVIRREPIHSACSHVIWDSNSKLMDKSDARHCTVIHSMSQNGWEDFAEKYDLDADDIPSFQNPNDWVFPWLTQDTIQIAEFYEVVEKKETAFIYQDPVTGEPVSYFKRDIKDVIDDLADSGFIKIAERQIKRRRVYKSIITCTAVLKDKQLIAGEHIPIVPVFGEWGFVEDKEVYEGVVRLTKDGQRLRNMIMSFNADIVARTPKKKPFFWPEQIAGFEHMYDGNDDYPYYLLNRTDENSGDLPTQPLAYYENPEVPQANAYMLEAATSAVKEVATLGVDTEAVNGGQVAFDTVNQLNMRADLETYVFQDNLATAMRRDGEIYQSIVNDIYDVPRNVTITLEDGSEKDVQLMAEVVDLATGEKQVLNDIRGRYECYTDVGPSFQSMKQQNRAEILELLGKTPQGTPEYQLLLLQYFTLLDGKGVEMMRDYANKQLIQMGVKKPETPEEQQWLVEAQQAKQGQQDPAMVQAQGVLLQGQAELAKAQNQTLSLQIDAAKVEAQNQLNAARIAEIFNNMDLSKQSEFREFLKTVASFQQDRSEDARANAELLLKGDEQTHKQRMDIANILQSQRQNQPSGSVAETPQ

cryo-EM structure = biological target: the molecule itself
P22 gp9 tailspike = P22 gp9 tailspike (bacteriophage P22, UniProt P12528 1-667)
[2] = biological target: T2, P22 portal protein gp1 in the tail machine purified from virions (bacteriophage P22, UniProt P26744 1-725)
T2 sequence (looked up): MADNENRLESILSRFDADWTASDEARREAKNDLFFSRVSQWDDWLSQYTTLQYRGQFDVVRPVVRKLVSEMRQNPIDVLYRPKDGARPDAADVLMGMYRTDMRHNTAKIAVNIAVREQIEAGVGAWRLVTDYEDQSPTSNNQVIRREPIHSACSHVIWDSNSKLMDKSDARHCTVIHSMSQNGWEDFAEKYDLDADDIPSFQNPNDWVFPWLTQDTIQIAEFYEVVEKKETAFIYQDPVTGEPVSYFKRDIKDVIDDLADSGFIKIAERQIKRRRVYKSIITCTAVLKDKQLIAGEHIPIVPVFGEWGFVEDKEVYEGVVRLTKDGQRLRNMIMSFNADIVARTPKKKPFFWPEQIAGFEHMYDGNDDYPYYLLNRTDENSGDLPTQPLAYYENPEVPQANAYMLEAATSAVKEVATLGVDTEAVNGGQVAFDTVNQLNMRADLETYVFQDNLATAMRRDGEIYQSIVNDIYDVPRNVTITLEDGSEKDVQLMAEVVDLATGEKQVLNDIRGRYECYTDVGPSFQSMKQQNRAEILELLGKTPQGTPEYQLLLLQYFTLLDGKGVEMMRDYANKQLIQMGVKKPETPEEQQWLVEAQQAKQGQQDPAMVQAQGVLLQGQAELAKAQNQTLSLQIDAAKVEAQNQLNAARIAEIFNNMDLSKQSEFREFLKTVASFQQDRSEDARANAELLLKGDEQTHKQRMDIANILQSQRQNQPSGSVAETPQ

Binder | stoichiometry N [1] | binding result (cryo-EM structure) | binding result (P22 gp9 tailspike) | binding result [2]
B1 | 11 and 12 | – | – | –
B2 | – | binds | – | –
B3 | – | binds | binds | binds
